The source of these data is patent publication US20090035281A1, “COMBINATION OF INTERLEUKIN-6 ANTAGONISTS AND ANTIPROLIFERATIVE DRUGS” (Universita Degli Studi "Magna Graecia" Di Catanzaro, priority 2005, published 2009).

In series [1] the test system is human IL-6-dependent multiple myeloma (MM) cell line, INA-6. As to the kind of experiment: Cell proliferation assay ([3H]-thymidine incorporation), INA-6 cells with exogenous IL-6. To be noted: INA-6, exogenous IL-6 present, 3 days' exposure. The format is cell-based. The procedure: The formation, characterisation and in-vitro culturing of the IL-6-dependent human MM cell line INA-6 is described in Burger, R., et al.; Hematol. J., 2001; 2:42-53. The cells were maintained in RPMI 1640 culture medium (GIBCO, Grand Island, N.Y.) added with 10% foetal calf serum (FCS, Hyclone, Logan, Utah), L-glutamine 2 mM (GIBCO), 100 μg/ml of streptomycin (GIBCO) and 100 U/ml of penicillin (GIBCO) in the presence of 2.5 ng/ml of IL-6 at 37° C. in a 5% CO2 atmosphere
(§1) Cell proliferation was measured by incorporation of [^3H]-thymidine (NEN Life Science Products, Boston, Mass.). Cells (2×10^4 cells/well) were incubated on 96-well culture plates in the presence or absence of 70-80% confluent BMSC at 37° C. with or without the study substance (in wells in triplicate) for 72 h. [^3H]-thymidine (0.5 μCi) was then added to each well for at least 8 h. Cells were collected on glass filters with an automatic cell collector (Cambridge Technology, Cambridge, Mass.) and counted using a Micro-Beta Trilux counter (Wallac, Gaithersburgh, Md.).
IL-6 has been identified as one of the main factors in the growth and survival of MM cells. […] INA-6 cells were seeded and cultured on 96-well plates in the presence of exogenous IL-6, and then, after 3 days' exposure of the cells to the drugs, cell proliferation and apoptosis were determined.

Series [2] has the same test system. As to the kind of experiment: Detection of apoptosis (annexin V-FITC / propidium iodide flow cytometry), INA-6 cells with exogenous IL-6. The following applies: INA-6, exogenous IL-6 present, 3 days' exposure. The format is cell-based. The procedure:
To detect the induction of cell death by apoptosis, double staining was performed with annexin V labelled with FITC and propidium iodide (PI). After treating 1×10^6 tumour cell for 48 h, the cells were washed with PBS and resuspended in 100 μl of HEPES buffer containing annexin V-FITC and propidium iodide (PI) (Annexin V-FLUOS staining kit; Roche Diagnostic, Indianapolis, Ind.). After 15 minutes' incubation at room temperature, the cells were analysed using a Coulter Epics XL flow cytometer to detect the presence of an apoptotic cell population staining positive for annexin V-FITC and negative for PI.
IL-6 has been identified as one of the main factors in the growth and survival of MM cells. INA-6 is a human myeloma cell line that requires exogenous IL-6 for growth in vitro (FIG. 1A). […] INA-6 cells were seeded and cultured on 96-well plates in the presence of exogenous IL-6, and then, after 3 days' exposure of the cells to the drugs, cell proliferation and apoptosis were determined.
(In general: A flow cytometer gives signals particle by particle.)

Series [3] has as its system INA-6 cells adhering to bone marrow stromal cells (BMSC). Briefly: Cell proliferation of INA-6 cells adhering to BMSC, no exogenous IL-6. The format is cell-based, human. The following applies: 70-80% confluent BMSC, no exogenous IL-6, 3 days after treatment. The procedure:
as §1
Since the paracrine production of IL-6 occurs when the MM cells adhere to BMSC (Uchiyama, H., et al.; Blood, 1993; 82:3712-3720), the supporting effect of BMSC for the in-vitro growth of INA-6 cells after exposure to the drugs was evaluated. The INA-6 cells were seeded on 70-80% confluent BMSC, in the absence of exogenous IL-6, and the cell proliferation was established 3 days after the treatment.

Series [4] concerns INA-6 MM cells in human foetal bone implant. Briefly: SCID-hu INA-6 mouse model of human MM, tumour growth by serum shuIL-6R. The series is classed as in vivo. The following applies: for reduction in serum shuIL-6R (marker of tumour growth) vs control group: s.c., SANT-7 3.3 mg/kg or Dex 1 mg/kg alone, 5 consecutive days; for tolerability in SCID-hu mice: treatment with single agent. The procedure:
Male SCID C-17 mice aged from six to eight weeks (Taconic Germany, N.Y.) were housed and monitored in our Animal Research Facility. All the experimental procedures and protocols were approved by the Institutional Committee on the Treatment and Use of Animals. Human foetal femur transplants were implanted in SCID (SCID-hu) mice, as described in Urashima, M., et al.; Blood, 1997; 90(2): 754-65; Tassone, P., et al.; Blood, 2004. Four weeks after implantation, 2.5×10^6 INA-6 MM cells in 50 μl of PBS were injected into the foetal bone implant in the SCID-hu hosts. Serum levels of the interleukin-6 soluble receptor (shuIL-6R) (R & D Systems Inc., Minneapolis, Minn.) were monitored in the mice.
(§2) In these mice serum shuIL-6R was measured as a marker of tumour growth and disease severity, since it is released by the INA-6 cells. First, the pharmacokinetics of SANT-7 was determined.

The test system of series [5] is human CD34+ Haematopoietic Progenitor Cells (HPC). As to the kind of experiment: Liquid culture of CD34+ HPC, flow cytometric cell cycle (DNA content, PI) analysis. The series is classed as cell-based. To be noted: 6 days liquid culture with haemopoietins + IL-6. An excerpt:
(§3) Peripheral blood mobilised CD34^+ HPC were isolated from leukapheresis products of patients with haematopoietic and non-haematopoietic tumours, treated with high-dose chemotherapy and G-CSF or GM-CSF. Peripheral blood mononuclear cells were obtained by centrifugation across a Ficoll density gradient (Seromed, Berlin, Germany), washed and submitted to positive selection using the CD34 Progenitor Cell Isolation Kit (Miltenyi Biotech, Bergish Gladbach, Germany). In brief, CD34^+ HPC were magnetically labelled indirectly using a primary monoclonal antibody conjugated with a hapten and an anti-hapten antibody coupled with MACS MicroBeads (Miltenyi). The labelled cells were subsequently enriched with the MiniMACS magnetic field.

The test system of another series is purified CD34+ HPC. As to the kind of experiment: Clonogenic progenitor assays in methylcellulose. The format is cell-based, human. The following applies: for CFC-GM: SANT-7 200 ng/ml, Dex 10^-5 M; for Total: total colonies.
Excerpt: as §3
The clonogenic progenitor assays were carried out in methylcellulose as described previously with minor modifications. In brief, 1×10^3 freshly isolated CD34^+ HCP were seeded in IMDM (GIBCO) containing 1% methylcellulose, 30% foetal calf serum (Hyclone), 1% bovin serum albumin (Sigma), L-glutamine 2 mM (GIBCO) and 2β-mercaptoethanol 10^−4 M (Stemcell Technologies Inc., Vancouver, Canada). To induce granulomonocytic or erythroid differentiation, the cells were stimulated with IL-3 (50 ng/ml), GM-CSF (100 ng/ml), G-CSF (100 ng/ml) or IL-3 (50 ng/ml), GM-CSF (100 ng/ml), SCF (50 ng/ml) ed Epo (3 U/ml), respectively. […] 1 ml aliquots were plated in triplicate on 35 mm culture plates (Falcon) at 37° C. in a 5% CO2 humidified atmosphere. After 14 days' culture, the granulomonocytic colonies (CFC-GM) and the erythroid colonies (BFU-E) were counted by examining the cultures under an inverted microscope.

The nature of series [6]: In-vivo kinetics of SANT-7 after s.c. injection. Further details: species or system SCID-hu mouse. The procedure:
A) Sant-7 (3.3 mg/kg) was injected s.c. into a SCID-hu mouse and its kinetics was evaluated with serial determinations of IL-6 in serum. B) Tumour growth in SCID-hu mice implanted with INA-6 cells was monitored with serial measurements of shuIL-6R. […] P values were obtained by comparison between the control groups and the groups treated with the combination. The data were expressed as mean±SE.
as §2

Setting [7] is: single s.c. injection 3.3 mg/kg.

As for `C[C@@H]1C[C@H]2[C@@H]3CCC4=CC(=O)C=C[C@]4(C)[C@@]3(F)[C@@H](O)C[C@]2(C)[C@@]1(O)C(=O)CO` [Dex, dexamethasone, reference compound], the “growth inhibition of MM cells” value in series [1] is given as “neither modified cell proliferation”. In addition, the “death by apoptosis in MM cells” value in series [2] is reported as “nor induced apoptosis”. For the same molecule, the “growth inhibition of INA-6 cells adhering to BMSC” value in series [3] was “activity was inhibited”. In series [4], the “reduction in serum shuIL-6R (marker of tumour growth) vs control group” value was “did not induce any significant reduction” and the “tolerability in SCID-hu mice” value is listed as “well tolerated”.

B1: SANT-7: superantagonist of the IL-6 receptor, molecular variant of IL-6 totally incapable of binding gp130, sequence SEQ ID No. 4 (protein, listed as Homo sapiens)
chain: PVPPGEDSKDVAAPHRQPLTSSERIDKQIRDILDFISALRKETCNKSNMCESSKEADAFWNLNLPKMAEKDGCFYKGFNEETCLVKIITGLLEFEVYLEYLQNRFESSEEQARAVQMRTKDLIQFLQKKAKNLDAITTPDPTTNASLLTKLQAQNQWLQDMTTHLILRSFKEFLIRSLRALRAM
For the molecule B1, the “growth inhibition of MM cells” value in series [1] is “high rates of growth inhibition”. Moreover, in series [5], the “apoptosis rate of CD34+ cells” value is reported as “No significant apoptosis rate” and the “effect on cell proliferation (cell cycle) of CD34+ cells” value is given as “does not significantly affect cell proliferation”. Also, in the series on purified CD34+ HPC (CD34+ HPC, clonogenic assays), the “effect on generation of CFC-GM and BFU-E in response to haemopoietins” value is recorded as “does not interfere appreciably”. Further, the CFC-GM with purified CD34+ HPC (colonies, IL3 + GM + G + IL6 (granulomonocytic differentiation), 1 × 10^3 cells/plate, day 14, mean ± SD) was 73 ± 2. In the series on purified CD34+ HPC (colonies, IL3 + GM + SCF + Epo + IL6 (erythroid differentiation), 1 × 10^3 cells/plate, day 14, mean ± SD), the CFC-GM is listed as 21 ± 1. Further, in the series with purified CD34+ HPC (colonies, IL3 + GM + SCF + Epo + IL6, 1 × 10^3 cells/plate, day 14, mean ± SD), the BFU-E was found to be 50 ± 2. Moreover, the Total with purified CD34+ HPC (IL3 + GM + G + IL6, 1 × 10^3 cells/plate, day 14, mean ± SD) was determined as 73 ± 2. The Total in the series with purified CD34+ HPC (IL3 + GM + SCF + Epo + IL6, 1 × 10^3 cells/plate, day 14, mean ± SD) amounted to 71 ± 1. Besides, the “death by apoptosis in MM cells” value in series [2] is “high rates”. Further, in series [6] (setting [7]), the “time drug remains in circulation after the injection” value was found to be 4 h and the “time to SANT-7 serum peak” value amounted to 30 min. Further, in series [6] (subcutaneous administration), the clearance result is “very rapid clearance”. The “growth inhibition of INA-6 cells adhering to BMSC” value in series [3] is “reduced the efficacy of the growth inhibition”. For the same molecule, in series [4], the “reduction in serum shuIL-6R (marker of tumour growth) vs control group” value was “did not induce any significant reduction” and the “tolerability in SCID-hu mice” value was “well tolerated”.
